Reference: US20230312724A1 (KADMON, published 2023)
Changes are numbered by the printed parent chain. Where two headings read alike, the source gives them in different places. Blank lines part the entries; values can stand above or below the binder they belong to.

Assays:
[1] = biological target: T1, hB7-H4 (soluble human B7-H4, construct not named) (human, UniProt Q7Z7D3 25-259, limits assumed); assay: SPR (Biacore)
T1 construct: also called soluble hB7-H4
T1 sequence: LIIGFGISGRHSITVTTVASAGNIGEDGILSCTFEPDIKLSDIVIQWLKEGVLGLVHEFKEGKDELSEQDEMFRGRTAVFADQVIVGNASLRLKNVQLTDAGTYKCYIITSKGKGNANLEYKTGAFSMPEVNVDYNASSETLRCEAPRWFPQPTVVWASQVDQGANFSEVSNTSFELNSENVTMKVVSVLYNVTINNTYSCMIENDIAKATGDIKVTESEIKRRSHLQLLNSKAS

human B7-H4-Fc [2] = biological target: T2, human B7-H4-Fc (human); assay: ELISA on coated hB7-H4-Fc
T2 construct: also called hB7-H4-Fc; hB7-H4 Fc
Protocol: (§1) About 1-2 μg/ml of human or mouse B7-H4-Fc (or his-tagged) was immobilized on ELISA plates (Immuno 2HB, Thermo scientific, cat #3455) at 4° C. overnight. After blocking the plates with 3% PBS+milk, serial diluted antibodies were added to the blocked plates and incubated at RT for 1-1.5 h. After washing the plates with PBS-T (0.05%), horse radish peroxidase (HRP)-conjugated antibody targeting the hFab was added to the plate. Signals were developed by adding 3,3′,5,5′-Tetramethylbenzidine (TMB (followed 1N of H₂SO₄ to stop the reaction. The OD at 450 nm was read by ELISA plate reader (Infinite M1000 from TECAN). GraphPad from Prism was used to plot OD450 vs. antibody concentration curve and to calculate the EC50 values.

[3] = biological target: T3, mouse B7-H4 expressed on cells (mouse, UniProt Q7TSP5 25-257); assay: flow cytometry, CT26 cells expressing mB7-H4
T3 construct: also called cellular mB7-H4; mB7-H4/CT26
T3 sequence: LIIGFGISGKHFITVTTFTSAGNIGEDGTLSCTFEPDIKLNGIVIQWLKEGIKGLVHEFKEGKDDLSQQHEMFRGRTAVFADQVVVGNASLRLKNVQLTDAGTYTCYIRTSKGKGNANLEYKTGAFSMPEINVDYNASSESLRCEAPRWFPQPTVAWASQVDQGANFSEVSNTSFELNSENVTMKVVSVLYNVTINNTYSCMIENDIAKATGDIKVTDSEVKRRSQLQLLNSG

[4] = biological target: T4, human B7-H4 expressed on cells (human, UniProt Q7Z7D3 25-282); assay: flow cytometry, MDA-MB-468 cells
T4 construct: Transfected CHO cells or tumor cell lines that carry hB7-H4; also called cellular hB7-H4
T4 sequence: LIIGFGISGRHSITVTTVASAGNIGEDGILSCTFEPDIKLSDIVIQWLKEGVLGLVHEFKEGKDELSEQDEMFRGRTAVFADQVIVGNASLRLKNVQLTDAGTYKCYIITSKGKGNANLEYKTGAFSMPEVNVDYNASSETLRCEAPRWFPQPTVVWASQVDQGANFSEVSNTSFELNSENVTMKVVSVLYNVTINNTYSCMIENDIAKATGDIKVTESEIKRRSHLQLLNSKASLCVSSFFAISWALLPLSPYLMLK
Protocol: (§2) Cells were harvested, washed once, and then re-suspended to the concentration of 1×10⁶ cells/ml in ice cold FACS Buffer. 25 μl of cell suspension was added to each well of a 96-well round-bottom microliter plate. Serially diluted antibodies or fusion proteins were added to each well and incubated for 1 hour at 4° C. Cells were washed three times by centrifugation at 1500 rpm for 5 minutes, and then stained with secondary antibody (1:200 dilution) for 30 min at 4° C. in the dark. Cells were washed once, re-suspended in 100 μl PBS buffer and then analyzed using Guava Flow Cytometry EasyCyte system.

[5] = biological target: T5, IgV domain of human B7-H4-Fc (human); assay: ELISA on coated IgV domain of hB7-H4
T5 construct: also called hB7-H4 IgV domain
Protocol: as §1

[6] = biological target: T4, human B7-H4 expressed on cells; assay: flow cytometry, SK-BR-3 cells
[7] = biological target: T6, IgC domain of mouse B7-H4-Fc (mouse; human); assay: ELISA, coated mB7-H4 IgC domain
T6 construct: also called mB7-H4 IgC domain

mouse B7-H4-his [8] = biological target: T7, mouse B7-H4-his (mouse, UniProt Q7TSP5 25-257); assay: ELISA on coated mB7-H4-his
T7 construct: also called mB7-H4-his; mB7-H4-His; not shown: his tag
T7 sequence: T3 sequence
Protocol: as §1

[9] = biological target: T8, IgV domain of mouse B7-H4-Fc (mouse; human); assay: ELISA, coated mB7-H4 IgV domain
T8 construct: also called mB7-H4 IgV domain

[10] = biological target: T4, human B7-H4 expressed on cells; assay: flow cytometry, SK-BR-3 cells; remark: listed apart in the source
Outline: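 Binding titrations: test proteins in serial dilution incubated on cells for 1 h at 4 °C in ice-cold FACS buffer. Detection with secondary antibody diluted 1:200.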

human B7-H4-Fc [11] = biological target: T2, human B7-H4-Fc; assay: SPR (Biacore)
Outline: (§3)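 Ligands (human B7-H4-Fc, human B7-H4-his, mouse B7-H4-Fc) were amine-coupled to CM5 chips at 50-100 RU. Analyte was injected at 100 nM to 0.1 nM in HBS-EP, pH 7.4, at 25 °C, with 180 s association and 1000 or 1200 s dissociation. Kinetics were fitted to a 1:1 Langmuir model.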

[12] = biological target: T1, hB7-H4 (soluble human B7-H4, construct …); assay: SPR (Biacore); remark: listed apart in the source
Outline: as §3

human B7-H4-his [13] = biological target: T9, human B7-H4-his (human, UniProt Q7Z7D3 25-259); assay: SPR (Biacore)
T9 construct: also called hB7-H4-his; hB7-H4 his; not shown: his tag
T9 sequence: T1 sequence
Outline: as §3

[14] = biological target: T5, IgV domain of human B7-H4-Fc; assay: ELISA, coated hB7-H4 IgV domain
human B7-H4-his [15] = biological target: T9, human B7-H4-his; assay: ELISA on coated hB7-H4-his
Protocol: as §1

mouse B7-H4-Fc [16] = biological target: T10, mouse B7-H4-Fc (mouse; human); assay: ELISA on coated mB7-H4-Fc
T10 construct: also called mB7-H4-Fc; mB7-H4-hFc
Protocol: as §1

[17] = biological target: T1, hB7-H4 (soluble human B7-H4, construct …); assay: ELISA, hB7-H4
Protocol: as §1

[18] = biological target: T11, IgC domain of human B7-H4-Fc (human); assay: ELISA, coated hB7-H4 IgC domain
T11 construct: also called hB7-H4 IgC domain

[19] = biological target: T4, human B7-H4 expressed on cells; assay: flow cytometry, MX-1 cells
Protocol: as §2

[20] = biological target: T1, hB7-H4 (soluble human B7-H4, construct …); assay: ELISA, hB7-H4; remark: listed apart in the source
Outline: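 Antibody titrations were applied for 1-1.5 h at RT to wells precoated (4° C overnight) with roughly 1-2 μg/ml human or mouse B7-H4-Fc or his-tagged protein, then blocked with 3% PBS+milk. Detection used HRP anti-hFab and TMB at OD450; EC50 from the curve.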

human B7-H4-Fc [21] = biological target: T2, human B7-H4-Fc; assay: ELISA, coated hB7-H4-Fc
Protocol: (§4) ELISA experiments were performed to determine binding to hB7-H4-Fc (FIG. 4A), hB7-H4-his (FIG. 4B), hB7-H4 IgV domain (FIG. 4C), and mB7-H4 IgV domain (FIG. 4D). Flow cytrometry experiments were performed to determine binding to CHO cells expressing hB7-H4 (FIG. 4E) or mB7-H4 (FIG. 4F). […] A cross-reactive IgV binding antibody was used as a control.
as §1

[22] = biological target: T3, mouse B7-H4 expressed on cells; assay: flow cytometry, CHO cells expressing mB7-H4
Protocol: (§5) ELISA experiments were performed to determine binding to hB7-H4-Fc (FIG. 3A), hB7-H4-his (FIG. 3B), mB7-H4-Fc (FIG. 3C), and hB7-H4 IgV domain (FIG. 3D). Flow cytometry experiments were performed to determine binding to CHO cells expressing hB7-H4 (FIG. 3E) or mB7-H4 (FIG. 3F).
as §2

[23] = biological target: T12, mB7-H4 (soluble mouse B7-H4, construct not named) (mouse, UniProt Q7TSP5 25-257, limits assumed); assay: summary of ELISA and flow cytometry
T12 sequence: T3 sequence

mouse B7-H4-Fc [24] = biological target: T10, mouse B7-H4-Fc; assay: ELISA, coated mB7-H4-Fc
Protocol: as §5, §1

[25] = biological target: T8, IgV domain of mouse B7-H4-Fc; assay: ELISA, coated mB7-H4 IgV domain; remark: listed apart in the source
Protocol: as §4, §1

[26] = biological target: T6, IgC domain of mouse B7-H4-Fc; assay: ELISA, coated mB7-H4 IgC domain (title on the sheet: IgC domain of mB7H4)
Protocol: as §1

mouse B7-H4-his [27] = biological target: T7, mouse B7-H4-his; assay: ELISA, coated mB7-H4-his
Protocol: as §1

[28] = biological target: T5, IgV domain of human B7-H4-Fc; assay: ELISA, coated hB7-H4 IgV domain; remark: listed apart in the source
Protocol: as §4, §1

human B7-H4-Fc [29] = biological target: T2, human B7-H4-Fc; assay: SPR (Biacore); remark: listed apart in the source
human B7-H4-his [30] = biological target: T9, human B7-H4-his; assay: SPR (Biacore); remark: listed apart in the source
[31] = biological target: T3, mouse B7-H4 expressed on cells; assay: flow cytometry, mB7H4 stable cells (CHO)
Protocol: as §4, §2

mouse B7-H4-Fc [32] = biological target: T10, mouse B7-H4-Fc; assay: ELISA, coated mB7-H4-Fc (title on the sheet: Binding to mB7H4-Fc)
Protocol: as §4, §1

mouse B7-H4-his [33] = biological target: T7, mouse B7-H4-his; assay: SPR (Biacore)

T2 sequence (chain, as listed by the source): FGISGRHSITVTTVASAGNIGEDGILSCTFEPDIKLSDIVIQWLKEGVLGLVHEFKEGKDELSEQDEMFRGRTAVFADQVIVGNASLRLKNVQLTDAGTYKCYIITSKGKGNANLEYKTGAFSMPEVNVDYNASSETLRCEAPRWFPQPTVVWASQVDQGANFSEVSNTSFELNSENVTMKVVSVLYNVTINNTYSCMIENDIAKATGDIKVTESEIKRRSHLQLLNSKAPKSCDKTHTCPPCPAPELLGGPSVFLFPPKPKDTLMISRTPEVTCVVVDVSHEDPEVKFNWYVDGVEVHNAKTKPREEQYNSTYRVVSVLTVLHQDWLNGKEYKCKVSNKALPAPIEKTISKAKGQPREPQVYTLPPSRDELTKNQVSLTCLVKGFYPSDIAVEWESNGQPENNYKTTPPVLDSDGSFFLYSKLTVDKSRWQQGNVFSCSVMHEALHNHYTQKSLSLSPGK
T10 sequence (chain, as listed by the source): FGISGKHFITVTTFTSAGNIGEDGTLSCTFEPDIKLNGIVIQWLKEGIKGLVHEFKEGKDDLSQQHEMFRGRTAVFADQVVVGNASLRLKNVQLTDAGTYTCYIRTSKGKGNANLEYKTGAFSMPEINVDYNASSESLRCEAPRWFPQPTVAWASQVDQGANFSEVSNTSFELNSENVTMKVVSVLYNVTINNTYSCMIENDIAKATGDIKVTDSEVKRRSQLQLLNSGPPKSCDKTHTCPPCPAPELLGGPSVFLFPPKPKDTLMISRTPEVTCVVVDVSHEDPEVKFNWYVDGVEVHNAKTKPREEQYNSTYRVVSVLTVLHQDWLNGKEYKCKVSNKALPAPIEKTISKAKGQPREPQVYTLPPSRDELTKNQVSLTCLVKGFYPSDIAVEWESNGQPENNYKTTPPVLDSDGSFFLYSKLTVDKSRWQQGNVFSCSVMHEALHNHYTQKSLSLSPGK
T8 sequence (chain, as listed by the source): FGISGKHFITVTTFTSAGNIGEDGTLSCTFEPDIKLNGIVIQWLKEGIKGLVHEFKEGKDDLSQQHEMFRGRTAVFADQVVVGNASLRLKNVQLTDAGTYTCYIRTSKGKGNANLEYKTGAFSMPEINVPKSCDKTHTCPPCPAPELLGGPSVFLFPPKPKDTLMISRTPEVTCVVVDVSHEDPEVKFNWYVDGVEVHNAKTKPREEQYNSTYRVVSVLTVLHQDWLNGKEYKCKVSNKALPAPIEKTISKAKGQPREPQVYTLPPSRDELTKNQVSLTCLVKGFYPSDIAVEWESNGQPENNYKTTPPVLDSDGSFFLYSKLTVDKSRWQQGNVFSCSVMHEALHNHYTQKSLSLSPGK
T5 sequence (chain, as listed by the source): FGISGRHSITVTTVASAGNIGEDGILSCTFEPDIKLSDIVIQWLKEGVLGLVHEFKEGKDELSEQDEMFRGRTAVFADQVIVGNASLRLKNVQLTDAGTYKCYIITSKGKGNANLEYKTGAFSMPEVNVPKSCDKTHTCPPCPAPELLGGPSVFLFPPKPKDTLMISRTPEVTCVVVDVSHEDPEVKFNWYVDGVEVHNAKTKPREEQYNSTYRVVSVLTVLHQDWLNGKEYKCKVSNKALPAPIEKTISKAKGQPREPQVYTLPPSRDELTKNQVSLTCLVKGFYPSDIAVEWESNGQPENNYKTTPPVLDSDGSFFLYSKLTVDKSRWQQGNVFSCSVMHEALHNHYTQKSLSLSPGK
T6 sequence (chain, as listed by the source): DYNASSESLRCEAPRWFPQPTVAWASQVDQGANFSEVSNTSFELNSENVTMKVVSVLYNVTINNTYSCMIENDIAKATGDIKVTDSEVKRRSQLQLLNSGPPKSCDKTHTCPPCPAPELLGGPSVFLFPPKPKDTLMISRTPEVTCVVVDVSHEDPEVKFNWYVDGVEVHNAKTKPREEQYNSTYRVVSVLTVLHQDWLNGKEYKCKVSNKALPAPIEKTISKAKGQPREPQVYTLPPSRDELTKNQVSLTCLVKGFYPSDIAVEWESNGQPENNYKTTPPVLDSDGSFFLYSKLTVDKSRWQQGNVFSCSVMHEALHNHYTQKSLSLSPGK
T11 sequence (chain, as listed by the source): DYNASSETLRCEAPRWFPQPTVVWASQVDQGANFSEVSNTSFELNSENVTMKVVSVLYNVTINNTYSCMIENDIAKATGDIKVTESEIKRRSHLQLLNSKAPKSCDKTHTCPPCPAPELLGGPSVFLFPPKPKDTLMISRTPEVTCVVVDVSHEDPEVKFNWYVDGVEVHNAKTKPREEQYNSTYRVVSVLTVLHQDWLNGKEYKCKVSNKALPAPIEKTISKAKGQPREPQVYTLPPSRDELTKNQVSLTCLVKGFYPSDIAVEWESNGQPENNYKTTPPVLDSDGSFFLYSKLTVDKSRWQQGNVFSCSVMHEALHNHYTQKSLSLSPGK

Kd [1]: 0.0454 nM
EC50 (read off the curve) (human B7-H4-Fc [2]): ~0.07 nM
binding result [3]: no binding (tested: log 2 nM (100 nM))
EC50 [4]: 0.416 nM
EC50 (read off the curve) [5]: ~0.08 nM
EC50 [6]: 1.18 nM
binding result [7]: no binding (tested: log 1 nM (10 nM))
binding result (mouse B7-H4-his [8]): no binding (tested: 10 nM)
binding result [9]: no binding (tested: log 1 nM (10 nM))
EC50 [10]: 0.41 nM
Kd (human B7-H4-Fc [11]): 0.0433 nM
Kd [12]: 0.0385 nM
Kd (human B7-H4-his [13]): 0.0155 nM
EC50 (read off the curve) [14]: ~0.1 nM
EC50 (read off the curve) (human B7-H4-his [15]): ~0.1 nM
binding result (mouse B7-H4-Fc [16]): no binding (tested: 10 nM)
EC50 [17]: 0.082 nM
binding result [18]: no binding (tested: log 1 nM (10 nM))
EC50 [19]: 0.12 nM
EC50 [20]: 0.046 nM
B1: 3F2/50A10 (antibody, human IgG1, V domains shown)
VH: QVQLVQSGAEVKKPGASVKVSCKASGYTFTAQYMYWVRQAPGQGLEWMGRINPTSGNTVYAQKLQGRVTMTRDTSTSTVYMELSSLRSEDTAVYYCARGINWFDPWGQGTLVTVSS
VL: DIQMTQSPSSLSASVGDRVTITCQASQDISNYINWYQQKPGKAPKLLIYAASRLQSGVPSRFSGSGSGTDFTLTISSLQPEDFATYYCQQSYRSPFTFGQGTKLEIK

EC50 (read off the curve) (human B7-H4-Fc [21]): ~0.007 µg/mL
binding result [23]: no binding
binding result [25]: no binding
EC50 [10]: 18.6 nM
Kd [12]: 0.775 nM
EC50 (read off the curve) [28]: ~0.01 µg/mL
Kd (human B7-H4-Fc [29]): 0.805 nM
Kd (human B7-H4-his [30]): 0.551 nM
EC50 [20]: 0.044 nM
B2: 1D3/1D3 (antibody, human IgG1, V domains shown)
VH: EVQLLESGGGLVQPGGSLRLSCAASGFTFNTHAMHWVRQAPGKGLEWVSAISGSGGSTYYADSVKGRFTISRDISKNTLYLQMNSLRAEDTAVYYCARLLGRFGEYGMDVWGQGTTVTVSS
VL: DIQMTQSPSSLSASVGDRVTITCRASRSIYTWLAWYQQKPGKAPKLLIYDASTLQSGVPSRFSGSGSGTDFTLTISSLQPEDFATYYCQQSYSTPYTFGGGTKVEIK
binding result [22]: no binding (tested: axis value -7 (log scale labelled nM))
binding result (mouse B7-H4-Fc [24]): no binding (tested: axis value -8 (log scale labelled nM))
binding result [26]: no binding (tested: axis value -8 (labelled log nM))
binding result (mouse B7-H4-his [27]): no binding (tested: axis value -8 (labelled log nM))

EC50 (read off the curve) (human B7-H4-Fc [21]): ~0.01 µg/mL
binding result [23]: no binding
binding result [31]: no binding
binding result [25]: no binding
binding result (mouse B7-H4-his [33]): no binding
Kd (human B7-H4-Fc [29]): 2.86 nM
Kd (human B7-H4-his [30]): 4 nM
B3: 4H6/4H6 (antibody, human IgG1, V domains shown)
VH: EVQLLESGGGLVQPGGSLRLSCAASGFTFSSYGMHWVRQAPGKGLEWVSGISGSGGSTYYADSVKGRFTISRDNSKNTLYLQMNSLRAEDTAVYYCARTQWRASLDPWGQGTLVNVSS
VL: B2 VL with R27Q, S28D, Y30S, T31Y, D50G, S91T, Y92T, S93M, T94S, G100Q
binding result (mouse B7-H4-Fc [32]): no binding (tested: log 0.3 ug/ml (about 2 ug/ml))
